Laboratory results from the supplement of paper PMC9732359.
± gives the uncertainty stated by the source.

Assay: protein stability index of a GFP-peptide fusion (yeast GPS) (PSI 1-4); higher = more stable; sorted into four equal gates, so the index is relative within each strain
Procedure, shortened: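 Tiled 17-residue peptides from yeast proteins were fused downstream of GFP on a plasmid that also expresses Cherry, and the pooled library was carried in yeast. Mid-log cultures grown in leucine-free medium were sorted into four equal gates by GFP/Cherry fluorescence ratio. Plasmids from each gate were PCR-amplified and Illumina-sequenced, and reads were assigned to strains by barcodes. Each peptide's protein stability index is the sum, over gates, of the gate's read frequency multiplied by its gate number.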

## AAAGAAMIDAGALEEIT [FAS2]
doa10∆
  protein stability index: 2.72 ± 0.15
pdr5∆
  protein stability index: 2.96 ± 0.11
ubr1∆
  protein stability index: 2.73 ± 0.1

## AAANNNIKPVEQHHINN [GAL11]
doa10∆
  protein stability index: 2.97 ± 0.095
pdr5∆
  protein stability index: 2.67 ± 0.066
san1∆
  protein stability index: 2.72 ± 0.077
ubr1∆
  protein stability index: 2.96 ± 0.062

## AAAQAQSKIDLTKKKNE [SEM1]
doa10∆
  protein stability index: 2.9 ± 0.079
pdr5∆
  protein stability index: 2.83 ± 0.096
san1∆
  protein stability index: 2.94 ± 0.082
ubr1∆
  protein stability index: 2.87 ± 0.083

## AADILCELQVETYGSME [RPN5]
doa10∆
  protein stability index: 3.15 ± 0.1
pdr5∆
  protein stability index: 3.34 ± 0.075
san1∆
  protein stability index: 3.27 ± 0.1
ubr1∆
  protein stability index: 3.18 ± 0.23

## AAELLDKRIVISIDSWP [DIS3]
doa10∆
  protein stability index: 1.61 ± 0.062
pdr5∆
  protein stability index: 1.87 ± 0.09
san1∆
  protein stability index: 1.55 ± 0.14
ubr1∆
  protein stability index: 1.95 ± 0.072

## AAEQQSKAFKESSDFGA [SRP54]
doa10∆
  protein stability index: 2.8 ± 0.057
pdr5∆
  protein stability index: 2.3 ± 0.049
san1∆
  protein stability index: 2.58 ± 0.082
ubr1∆
  protein stability index: 2.34 ± 0.057

## AAFKDIAKRQFKEILTV [RRP40]
doa10∆
  protein stability index: 2.27 ± 0.051
pdr5∆
  protein stability index: 2.54 ± 0.062
san1∆
  protein stability index: 2.58 ± 0.062
ubr1∆
  protein stability index: 2.55 ± 0.05

## AAIWTLCKTKMVCETDV [RPO21]
doa10∆
  protein stability index: 1.55 ± 0.059
pdr5∆
  protein stability index: 1.69 ± 0.057
san1∆
  protein stability index: 1.44 ± 0.1
ubr1∆
  protein stability index: 1.47 ± 0.034

## AAKKAMYTLSAQDEVFS [ASC1]
doa10∆
  protein stability index: 2.78 ± 0.071
pdr5∆
  protein stability index: 2.6 ± 0.063
san1∆
  protein stability index: 2.23 ± 0.091
ubr1∆
  protein stability index: 2.83 ± 0.06

## AAPAGVAGGVAGGEAGE [RPP1A]
doa10∆
  protein stability index: 1.91 ± 0.16
pdr5∆
  protein stability index: 1.8 ± 0.18
san1∆
  protein stability index: 1.66 ± 0.28

## AARKAEKAKSAGTQSSK [RPL24A]
doa10∆
  protein stability index: 3.13 ± 0.099
pdr5∆
  protein stability index: 3.11 ± 0.068
san1∆
  protein stability index: 3.22 ± 0.082
ubr1∆
  protein stability index: 3.29 ± 0.043

## AARKAEKAKSAGVQGSK [RPL24B]
doa10∆
  protein stability index: 3.27 ± 0.087
pdr5∆
  protein stability index: 3.11 ± 0.068
san1∆
  protein stability index: 3.18 ± 0.065
ubr1∆
  protein stability index: 3.29 ± 0.042

## ADAKAFLDSMAQKYASI [FAS2]
doa10∆
  protein stability index: 3.07 ± 0.083
pdr5∆
  protein stability index: 3.19 ± 0.086
san1∆
  protein stability index: 3.12 ± 0.047
ubr1∆
  protein stability index: 2.94 ± 0.049

## ADDEKSDEEEVTEMSNN [BRR2]
doa10∆
  protein stability index: 3 ± 0.06
pdr5∆
  protein stability index: 3.02 ± 0.042
san1∆
  protein stability index: 2.84 ± 0.054
ubr1∆
  protein stability index: 3.1 ± 0.048

## ADEEEEIVDTYQEDIFV [ISW2]
doa10∆
  protein stability index: 2.8 ± 0.11
pdr5∆
  protein stability index: 2.67 ± 0.12
san1∆
  protein stability index: 3.43 ± 0.12
ubr1∆
  protein stability index: 2.48 ± 0.088

## ADGLLQVLVCTATLAWG [BRR2]
pdr5∆
  protein stability index: 1.77 ± 0.28
san1∆
  protein stability index: 2.17 ± 0.18
ubr1∆
  protein stability index: 2.14 ± 0.25

## ADGPTMREITETIAEAK [RPO21]
doa10∆
  protein stability index: 3.46 ± 0.074
pdr5∆
  protein stability index: 3.45 ± 0.055
san1∆
  protein stability index: 3.39 ± 0.026
ubr1∆
  protein stability index: 3.39 ± 0.041

## ADGSSYMEQGNNKIITL [SKI6]
doa10∆
  protein stability index: 2.79 ± 0.044
pdr5∆
  protein stability index: 3.07 ± 0.059
san1∆
  protein stability index: 2.82 ± 0.04
ubr1∆
  protein stability index: 3.015 ± 0.029

## ADILCPLLESFITFSLD [IRR1]
doa10∆
  protein stability index: 2.63 ± 0.11
pdr5∆
  protein stability index: 2.32 ± 0.081
san1∆
  protein stability index: 2.17 ± 0.071
ubr1∆
  protein stability index: 2.34 ± 0.064

## ADITDGNNTELTKTTVN [YCG1]
doa10∆
  protein stability index: 3.19 ± 0.078
pdr5∆
  protein stability index: 3.22 ± 0.068
san1∆
  protein stability index: 3.33 ± 0.052
ubr1∆
  protein stability index: 3.09 ± 0.053

## ADKPFTRLTAYQELAYR [YML031W/NDC1]
doa10∆
  protein stability index: 2.52 ± 0.12
pdr5∆
  protein stability index: 3.17 ± 0.11
san1∆
  protein stability index: 3.06 ± 0.18
ubr1∆
  protein stability index: 3 ± 0.098

## ADLMALENATWTMRIEG [SNF12]
doa10∆
  protein stability index: 2.94 ± 0.11
pdr5∆
  protein stability index: 3.05 ± 0.13
san1∆
  protein stability index: 3.17 ± 0.12
ubr1∆
  protein stability index: 3.07 ± 0.081

## ADNNDLQESINHVMYTE [ECM29]
doa10∆
  protein stability index: 2.66 ± 0.086
pdr5∆
  protein stability index: 3.02 ± 0.096
san1∆
  protein stability index: 3.05 ± 0.1
ubr1∆
  protein stability index: 3.02 ± 0.054

## ADVFTDDDLFETLVLSY [YCG1]
doa10∆
  protein stability index: 2.46 ± 0.09
pdr5∆
  protein stability index: 2.65 ± 0.056
san1∆
  protein stability index: 2.85 ± 0.064
ubr1∆
  protein stability index: 2.06 ± 0.041

## AECISLICSIGLHSSEY [ECM29]
doa10∆
  protein stability index: 1.98 ± 0.053
pdr5∆
  protein stability index: 2.38 ± 0.051
san1∆
  protein stability index: 2.2 ± 0.092
ubr1∆
  protein stability index: 2.62 ± 0.048
